Assay [1] deals with T1, rHuman CD44/Fc Chimera, CF (R&D Systems Cat#3660-CD) (human, UniProt P16070 21-220).
T1 construct: Bought Fc chimera; Fc part of the bought chimera not given
Description: ECL (MSD Multi-Spot) binding assay, antigen spotted on plate; Fab 3.8 nM; blank spot 198.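 Note: blank spot per well as comparator with Hit at signal to blank ratio of 4 or more.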

Assay [2] addresses T2, rHuman Erythropoietin R/Fc Chimera, CF (R&D Systems Cat#963-ER) (human, UniProt P19235 25-250).
T2 construct: Bought Fc chimera; also called EPO R/Fc; Epo R; Fc part of the bought chimera not given
T2 sequence: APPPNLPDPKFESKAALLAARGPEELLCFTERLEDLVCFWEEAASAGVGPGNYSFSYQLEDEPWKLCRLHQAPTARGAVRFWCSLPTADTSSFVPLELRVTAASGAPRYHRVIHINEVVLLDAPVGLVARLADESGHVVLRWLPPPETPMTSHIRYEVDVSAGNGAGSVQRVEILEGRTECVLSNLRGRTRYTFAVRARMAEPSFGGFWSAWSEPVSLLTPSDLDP
Described as above.

Assay [3] has as its target T3, rHuman Notch-1/Fc Chimera, CF (R&D Systems Cat#3647-TK) (human, UniProt P46531 19-526).
T3 construct: Bought Fc chimera; Fc part of the bought chimera not given
The description is as above.

Assay [4] has as its target T4, rHuman P-Cadherin/Fc Chimera, CF (R&D Systems Cat#861-PC) (human, UniProt P22223 108-654).
T4 construct: Bought Fc chimera; also called CDH3; Fc part of the bought chimera not given
Described as above.

Assay [5] deals with T5, Recombinant Human DLL4 (R&D Systems Cat#1506-D4/CF) (human, UniProt Q9NR61 27-524).
T5 construct: Bought recombinant protein; also called delta-like protein 4; rHuman DLL4
The assay is described as above.

Assay [6] addresses T6, rHuman Notch-1/Fc Chimera, CF (R&D Systems Cat#3647-TK) (human, UniProt P46531 19-526).
T6 construct: Bought Fc chimera; Fc part of the bought chimera not given
Description: MSD ECL multi-spot, Fab 0.14 uM, blank 237.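 Note: blank spot per well as comparator with Hit at signal to blank ratio of 4 or more.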

The target of assay [7] is T7, rHuman IGF-1 sR (insulin-like growth factor-1 soluble receptor), CF (R&D Systems Cat#391-GR) (human, UniProt P08069 31-932).
T7 construct: Bought soluble receptor; also called IGF-R1
Description: MSD ECL multi-spot, Fab 0.14 uM, blank 237.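 Note: blank spot per well as comparator with Hit at signal to blank ratio of 4 or more.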

For assay [8], the target named is T8, rHuman CD44/Fc Chimera, CF (R&D Systems Cat#3660-CD) (human, UniProt P16070 21-220).
T8 construct: Bought Fc chimera; Fc part of the bought chimera not given
The experiment in a line: MSD ECL multi-spot, Fab 0.14 uM, blank 237.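 Note: blank spot per well as comparator with Hit at signal to blank ratio of 4 or more.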

Assay [9] deals with T9, rHuman Erythropoietin R/Fc Chimera, CF (R&D Systems Cat#963-ER) (human, UniProt P19235 25-250).
T9 construct: Bought Fc chimera; also called EPO R/Fc; EPOR; Fc part of the bought chimera not given
T9 sequence: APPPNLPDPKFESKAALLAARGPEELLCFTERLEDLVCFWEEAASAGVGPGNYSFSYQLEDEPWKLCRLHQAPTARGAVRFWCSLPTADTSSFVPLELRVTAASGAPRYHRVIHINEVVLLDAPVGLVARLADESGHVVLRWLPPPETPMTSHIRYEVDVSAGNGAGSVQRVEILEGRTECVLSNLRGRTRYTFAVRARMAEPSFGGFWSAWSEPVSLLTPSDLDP
The experiment in a line: MSD ECL multi-spot, Fab 0.14 uM, blank 237.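 Note: blank spot per well as comparator with Hit at signal to blank ratio of 4 or more.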

The target in assay [10] is T10, rHuman ErbB2/Fc Chimera, CF (R&D Systems Cat#1129-ER) (human, UniProt P04626 23-652).
T10 construct: Bought Fc chimera; also called HER2/neu; Fc part of the bought chimera not given
The experiment in a line: MSD ECL multi-spot, Fab 0.14 uM, blank 237.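 Note: blank spot per well as comparator with Hit at signal to blank ratio of 4 or more.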

Assay [11] deals with T11, Recombinant Human DLL4 (R&D Systems Cat#1506-D4/CF) (human, UniProt Q9NR61 27-524).
T11 construct: Bought recombinant protein; also called rHuman DLL4; delta-like protein 4
The experiment in a line: MSD ECL multi-spot, Fab 0.14 uM, blank 237.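 Note: blank spot per well as comparator with Hit at signal to blank ratio of 4 or more.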

In assay [12] the target is T12, rHuman EGF R/Fc Chimera, CF (R&D Systems Cat#344-ER) (human, UniProt P00533 25-645).
T12 construct: Bought Fc chimera; Fc part of the bought chimera not given
The experiment in a line: MSD ECL multi-spot, Fab 0.14 uM, blank 237.

In assay [13] the target is T13, rHuman P-Cadherin/Fc Chimera, CF (R&D Systems Cat#861-PC) (human, UniProt P22223 108-654).
T13 construct: Bought Fc chimera; Fc part of the bought chimera not given
Description: MSD ECL multi-spot, Fab 0.14 uM, blank 237.

In assay [14] the target is T14, rHuman HGF R/c-MET/Fc Chimera, CF (R&D Systems Cat#358-MT/CF) (human, UniProt P08581 25-932).
T14 construct: Bought Fc chimera; also called HGF R/Fc; Fc part of the bought chimera not given
Description: MSD ECL multi-spot, Fab 0.14 uM, blank 237.

In assay [15] the target is T15, rHuman P-Cadherin/Fc Chimera, CF (R&D Systems Cat#861-PC) (human, UniProt P22223 108-654).
T15 construct: Bought Fc chimera; also called CDH3; not shown: Fc of the bought chimera
The experiment in a line: ECL (MSD multi-spot), antigen on plate, Fab 5 nM.

The target of assay [16] is T16, rHuman Erythropoietin R/Fc Chimera, CF (R&D Systems Cat#963-ER) (human, UniProt P19235 25-250).
T16 construct: Bought Fc chimera; also called EPO R/Fc; Epo R; not shown: Fc of the bought chimera
T16 sequence: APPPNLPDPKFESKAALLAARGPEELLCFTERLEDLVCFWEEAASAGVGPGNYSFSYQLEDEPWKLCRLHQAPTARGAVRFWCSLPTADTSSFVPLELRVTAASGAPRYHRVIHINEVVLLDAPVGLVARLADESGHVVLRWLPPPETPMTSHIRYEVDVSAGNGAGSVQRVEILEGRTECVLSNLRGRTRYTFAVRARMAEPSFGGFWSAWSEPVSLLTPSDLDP
Description: ECL (MSD multi-spot), antigen on plate, Fab 5 nM.

In assay [17] the target is T17, Recombinant Human DLL4 (R&D Systems Cat#1506-D4/CF) (human, UniProt Q9NR61 27-524).
T17 construct: Bought recombinant protein; also called delta-like protein 4
The experiment in a line: ECL (MSD multi-spot), antigen on plate, Fab 5 nM.

The target in assay [18] is T18, rHuman IGF-1 sR (insulin-like growth factor-1 soluble receptor), CF (R&D Systems Cat#391-GR) (human, UniProt P08069 31-932).
T18 construct: Bought soluble receptor; also called IGF-R1
The experiment in a line: ECL (MSD multi-spot), antigen on plate, Fab 5 nM.

Assay [19] has as its target T19, rHuman CD44/Fc Chimera, CF (R&D Systems Cat#3660-CD) (human, UniProt P16070 21-220).
T19 construct: Bought Fc chimera; not shown: Fc of the bought chimera
Description: ECL (MSD multi-spot), antigen on plate, Fab 5 nM.

Assay [20] addresses T20, rHuman Notch-1/Fc Chimera, CF (R&D Systems Cat#3647-TK) (human, UniProt P46531 19-526).
T20 construct: Bought Fc chimera; not shown: Fc of the bought chimera
The experiment in a line: ECL (MSD multi-spot), antigen on plate, Fab 5 nM.

B1: Fab VH6-1_IGHD3-3*01_IGHJ4*01 & V4-3_IGLJ4*01 (Fab, V domains shown)
VH: QVQLQQSGPGLVKPSQTLSLTCAISGDSVSSNSAAWNWIRQSPSRGLEWLGRTYYRSKWYNDYAVSVKSRITINPDTSKNQFSLQLNSVTPEDTAVYYCAREYYDFWSGYYTDYFDYWGQGTLVTVSS
VL: QPVLTQPTSLSASPGASARLTCTLRSGINLGSYRIFWYQQKPESPPRYLLSYYSDSSKHQGSGVPSRFSGSKDASSNAGILVISGLQSEDEADYYCMIWHSSASFVFGGGTQLIIL
notes: Tested as a Fab made in E. coli; also called IGHV6-1*01
For the molecule B1, the ECL signal worked out at 419 in assay [1]; 407 in assay [2]; 383 in [3]; 281 in assay [4]; 462 in [5].

B2: Fab VH1-46_IGHD6-6*01_IGHJ1*01 & L6_IGKJ1*01 (Fab, V domains shown)
VH: QVQLVQSGAEVKKPGASVKVSCKASGYTFTSYYMHWVRQAPGQGLEWMGIINPSGGSTSYAQKFQGRVTMTRDTSTSTVYMELSSLRSEDTAVYYCAREEYSSSSAEYFQHWGQGTLVTVSS
VL: not shown
notes: Expressed in E. coli as Fab: heavy chain with CH1 plus Flag and His tags from Plasmid A, kappa light chain constant region from Plasmid C; also called Fab No. 1
Regarding B2, the ECL signal turned out to be 614 in assay [6]; 663 in assay [7]; 515 in [8]; 693 in assay [9]; 870 in assay [10]; 19300 in assay [11]. Also, the ECL signal in [12] was determined as 823; in assay [13] it was 423; in assay [14] it was 848.

B3: Fab VH1-46_IGHD6-6*01_IGHJ1*01_S102A_S103P_S104Y_H111Y & L6_IGKJ1*01 (Fab, V domains shown)
VH: QVQLVQSGAEVKKPGASVKVSCKASGYTFTSYYMHWVRQAPGQGLEWMGIINPSGGSTSYAQKFQGRVTMTRDTSTSTVYMELSSLRSEDTAVYYCAREEYAPYSAEYFQYWGQGTLVTVSS
VL: not shown
notes: Fab made in E. coli; The heavy chain also carries CH1 with Flag and His tags from Plasmid A, and the light chain carries kappa CL from Plasmid C
For B3, the ECL signal in assay [15] was 4160 ECL signal; in [16], 3580 ECL signal; in [17] it was 73400 ECL signal; in [18] it was 3030 ECL signal; in assay [19] it was 2760 ECL signal; in assay [20], 3230 ECL signal.
